Columns and labels:
SHP2-C SH2 = assay: SH2 binding enrichment of the phosphorylated peptide, bacterial display (enrichment ratio); higher = better substrate or ligand; peptides without Tyr show the background
c-Src SH2 = assay: as above
Grb2 SH2 = Grb2 SH2 (UniProt P62993); assay: as above
Fes = Fes (UniProt P07332); assay: phosphorylation enrichment, bacterial display (enrichment ratio); higher = better substrate or ligand; peptides without Tyr show the background
EPHB1 = EPHB1 (UniProt P54762); assay: as above
Chain of EPHB1 (P54762 whole entry, looked up): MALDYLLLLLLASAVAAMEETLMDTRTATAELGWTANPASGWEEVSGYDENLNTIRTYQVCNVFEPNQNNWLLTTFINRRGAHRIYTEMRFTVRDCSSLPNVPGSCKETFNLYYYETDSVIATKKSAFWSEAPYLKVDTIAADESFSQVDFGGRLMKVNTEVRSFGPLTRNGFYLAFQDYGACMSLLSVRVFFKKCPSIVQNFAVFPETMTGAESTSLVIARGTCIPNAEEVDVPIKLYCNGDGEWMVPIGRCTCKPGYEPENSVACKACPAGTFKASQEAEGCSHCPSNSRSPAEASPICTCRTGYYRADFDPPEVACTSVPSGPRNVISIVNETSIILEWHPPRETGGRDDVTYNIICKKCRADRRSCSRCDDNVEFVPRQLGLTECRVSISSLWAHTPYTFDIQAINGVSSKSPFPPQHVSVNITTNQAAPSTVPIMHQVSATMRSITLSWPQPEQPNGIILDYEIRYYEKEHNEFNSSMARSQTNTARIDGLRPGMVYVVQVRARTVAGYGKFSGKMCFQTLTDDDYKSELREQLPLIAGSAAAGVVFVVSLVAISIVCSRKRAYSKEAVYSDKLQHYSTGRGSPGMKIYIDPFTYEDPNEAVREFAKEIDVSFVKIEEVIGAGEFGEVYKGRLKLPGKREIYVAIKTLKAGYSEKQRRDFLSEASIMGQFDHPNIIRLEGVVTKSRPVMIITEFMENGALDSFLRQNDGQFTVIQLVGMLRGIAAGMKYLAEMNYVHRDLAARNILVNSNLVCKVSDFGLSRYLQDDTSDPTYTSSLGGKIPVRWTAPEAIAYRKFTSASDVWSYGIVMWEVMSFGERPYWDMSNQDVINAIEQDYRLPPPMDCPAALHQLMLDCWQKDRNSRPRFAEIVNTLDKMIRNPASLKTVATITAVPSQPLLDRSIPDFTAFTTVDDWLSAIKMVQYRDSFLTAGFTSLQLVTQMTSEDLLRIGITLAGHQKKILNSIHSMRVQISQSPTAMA

EPHB2 = EPHB2 (UniProt P29323); assay: as above
Chain of EPHB2 (P29323 whole entry, looked up): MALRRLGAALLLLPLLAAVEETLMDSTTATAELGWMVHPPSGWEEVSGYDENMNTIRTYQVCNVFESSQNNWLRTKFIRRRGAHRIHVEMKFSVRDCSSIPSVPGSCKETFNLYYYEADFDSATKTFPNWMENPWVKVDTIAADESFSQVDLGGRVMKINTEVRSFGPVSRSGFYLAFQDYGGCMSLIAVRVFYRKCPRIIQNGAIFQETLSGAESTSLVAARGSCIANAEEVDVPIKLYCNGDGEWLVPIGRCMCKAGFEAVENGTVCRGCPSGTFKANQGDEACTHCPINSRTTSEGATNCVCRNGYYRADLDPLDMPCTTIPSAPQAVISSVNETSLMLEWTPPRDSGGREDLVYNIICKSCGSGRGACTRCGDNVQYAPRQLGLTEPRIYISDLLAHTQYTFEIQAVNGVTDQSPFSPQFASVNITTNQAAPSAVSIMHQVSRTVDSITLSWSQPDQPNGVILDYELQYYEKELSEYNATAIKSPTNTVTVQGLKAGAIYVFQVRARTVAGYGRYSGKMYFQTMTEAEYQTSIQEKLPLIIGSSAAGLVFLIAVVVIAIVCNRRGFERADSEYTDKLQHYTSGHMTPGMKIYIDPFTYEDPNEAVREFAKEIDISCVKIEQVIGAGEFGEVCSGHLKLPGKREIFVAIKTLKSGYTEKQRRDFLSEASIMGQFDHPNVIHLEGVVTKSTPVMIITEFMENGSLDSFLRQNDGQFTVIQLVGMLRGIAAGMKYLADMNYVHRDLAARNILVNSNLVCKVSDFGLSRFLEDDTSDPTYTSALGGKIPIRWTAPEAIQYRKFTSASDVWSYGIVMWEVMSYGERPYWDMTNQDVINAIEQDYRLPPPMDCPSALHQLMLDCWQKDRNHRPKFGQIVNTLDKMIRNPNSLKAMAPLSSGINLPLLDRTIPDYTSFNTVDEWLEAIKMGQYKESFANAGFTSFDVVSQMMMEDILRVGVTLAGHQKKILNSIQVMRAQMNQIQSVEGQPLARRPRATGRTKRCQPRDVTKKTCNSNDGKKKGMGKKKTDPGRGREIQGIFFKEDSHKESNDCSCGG

FGFR3 = FGFR3 (UniProt P22607); assay: as above
Hck = Hck (UniProt P08631); assay: as above
Chain of Hck (P08631 whole entry, looked up): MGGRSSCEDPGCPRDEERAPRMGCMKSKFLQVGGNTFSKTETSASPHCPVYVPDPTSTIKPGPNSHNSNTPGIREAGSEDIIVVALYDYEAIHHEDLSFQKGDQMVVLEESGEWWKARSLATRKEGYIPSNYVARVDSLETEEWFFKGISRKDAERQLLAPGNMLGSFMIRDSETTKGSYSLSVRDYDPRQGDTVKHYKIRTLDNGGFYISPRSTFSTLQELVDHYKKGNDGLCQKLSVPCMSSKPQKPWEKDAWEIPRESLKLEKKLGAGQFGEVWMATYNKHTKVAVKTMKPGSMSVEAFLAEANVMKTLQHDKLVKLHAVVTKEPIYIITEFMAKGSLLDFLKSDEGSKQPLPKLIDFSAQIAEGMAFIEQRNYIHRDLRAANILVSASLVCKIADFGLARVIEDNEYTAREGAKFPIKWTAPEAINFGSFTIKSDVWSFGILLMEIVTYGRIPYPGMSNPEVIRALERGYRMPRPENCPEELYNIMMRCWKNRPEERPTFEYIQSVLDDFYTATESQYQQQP

Fyn = Fyn (UniProt P06241); assay: as above
Chain of Fyn (P06241 whole entry, looked up): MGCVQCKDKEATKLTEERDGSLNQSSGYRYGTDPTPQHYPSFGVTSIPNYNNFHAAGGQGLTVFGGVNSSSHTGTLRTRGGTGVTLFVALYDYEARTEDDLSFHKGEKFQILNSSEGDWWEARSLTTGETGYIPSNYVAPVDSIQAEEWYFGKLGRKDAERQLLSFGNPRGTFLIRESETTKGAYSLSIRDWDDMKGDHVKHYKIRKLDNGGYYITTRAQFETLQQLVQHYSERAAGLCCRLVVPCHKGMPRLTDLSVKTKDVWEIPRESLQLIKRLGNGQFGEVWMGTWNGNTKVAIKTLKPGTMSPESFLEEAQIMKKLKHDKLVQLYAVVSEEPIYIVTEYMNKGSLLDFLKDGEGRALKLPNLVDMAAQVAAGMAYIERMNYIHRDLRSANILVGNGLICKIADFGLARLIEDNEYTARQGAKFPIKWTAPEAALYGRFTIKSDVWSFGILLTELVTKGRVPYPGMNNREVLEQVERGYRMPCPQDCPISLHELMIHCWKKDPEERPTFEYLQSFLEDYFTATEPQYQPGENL

AncSZ = assay: as above
c-Src = assay: as above
c-Abl (mouse) = assay: as above
MERTK = MERTK (UniProt Q12866); assay: as above
Chain of MERTK (Q12866 whole entry, looked up): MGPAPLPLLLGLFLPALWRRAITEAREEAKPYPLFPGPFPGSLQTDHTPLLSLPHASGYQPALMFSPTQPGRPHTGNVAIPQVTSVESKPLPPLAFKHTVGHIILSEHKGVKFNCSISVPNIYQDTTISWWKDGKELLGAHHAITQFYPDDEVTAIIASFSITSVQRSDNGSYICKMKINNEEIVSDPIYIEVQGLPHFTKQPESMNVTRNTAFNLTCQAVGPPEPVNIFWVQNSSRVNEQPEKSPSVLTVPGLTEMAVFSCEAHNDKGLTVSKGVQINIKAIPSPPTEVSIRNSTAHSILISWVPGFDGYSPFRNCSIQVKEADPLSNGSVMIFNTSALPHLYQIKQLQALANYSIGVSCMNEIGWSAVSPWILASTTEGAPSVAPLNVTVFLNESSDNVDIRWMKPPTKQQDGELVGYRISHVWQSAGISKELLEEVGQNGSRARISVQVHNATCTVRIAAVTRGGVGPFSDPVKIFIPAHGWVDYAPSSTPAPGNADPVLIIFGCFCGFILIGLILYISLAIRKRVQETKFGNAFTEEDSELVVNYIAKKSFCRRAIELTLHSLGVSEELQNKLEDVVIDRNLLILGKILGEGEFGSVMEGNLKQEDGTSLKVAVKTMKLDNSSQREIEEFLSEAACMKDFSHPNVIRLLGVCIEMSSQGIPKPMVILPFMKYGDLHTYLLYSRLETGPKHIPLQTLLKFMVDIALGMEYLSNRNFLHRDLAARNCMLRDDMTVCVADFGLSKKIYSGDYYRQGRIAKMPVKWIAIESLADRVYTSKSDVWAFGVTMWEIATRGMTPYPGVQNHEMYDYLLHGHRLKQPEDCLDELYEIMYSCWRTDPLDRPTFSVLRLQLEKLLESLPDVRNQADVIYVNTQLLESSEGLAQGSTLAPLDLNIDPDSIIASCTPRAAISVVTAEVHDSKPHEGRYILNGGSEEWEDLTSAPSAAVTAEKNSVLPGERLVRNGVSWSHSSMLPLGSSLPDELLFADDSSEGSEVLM

FGFR1 = FGFR1 (UniProt P11362); assay: as above
Fer (mouse) = assay: as above
Jak2 = Jak2 (UniProt O60674); assay: as above
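Wherever SH2 binding enrichment of the phosphorylated peptide, bacterial display is given: peptide library displayed on the E. coli surface as eCPX fusions, selected cells deep-sequenced, score is each peptide's frequency after selection divided by its frequency in the input.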
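Wherever phosphorylation enrichment, bacterial display is given: 11-residue human phosphosite peptides and single-mutation variants displayed on the E. coli surface, counted by deep sequencing, each peptide's frequency after selection divided by its frequency in the unselected input library; frequency after pTyr selection over input frequency; kinase dosed for 20-30% of maximal phosphorylation in three min.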

Chain of Fes (P07332 whole entry, looked up): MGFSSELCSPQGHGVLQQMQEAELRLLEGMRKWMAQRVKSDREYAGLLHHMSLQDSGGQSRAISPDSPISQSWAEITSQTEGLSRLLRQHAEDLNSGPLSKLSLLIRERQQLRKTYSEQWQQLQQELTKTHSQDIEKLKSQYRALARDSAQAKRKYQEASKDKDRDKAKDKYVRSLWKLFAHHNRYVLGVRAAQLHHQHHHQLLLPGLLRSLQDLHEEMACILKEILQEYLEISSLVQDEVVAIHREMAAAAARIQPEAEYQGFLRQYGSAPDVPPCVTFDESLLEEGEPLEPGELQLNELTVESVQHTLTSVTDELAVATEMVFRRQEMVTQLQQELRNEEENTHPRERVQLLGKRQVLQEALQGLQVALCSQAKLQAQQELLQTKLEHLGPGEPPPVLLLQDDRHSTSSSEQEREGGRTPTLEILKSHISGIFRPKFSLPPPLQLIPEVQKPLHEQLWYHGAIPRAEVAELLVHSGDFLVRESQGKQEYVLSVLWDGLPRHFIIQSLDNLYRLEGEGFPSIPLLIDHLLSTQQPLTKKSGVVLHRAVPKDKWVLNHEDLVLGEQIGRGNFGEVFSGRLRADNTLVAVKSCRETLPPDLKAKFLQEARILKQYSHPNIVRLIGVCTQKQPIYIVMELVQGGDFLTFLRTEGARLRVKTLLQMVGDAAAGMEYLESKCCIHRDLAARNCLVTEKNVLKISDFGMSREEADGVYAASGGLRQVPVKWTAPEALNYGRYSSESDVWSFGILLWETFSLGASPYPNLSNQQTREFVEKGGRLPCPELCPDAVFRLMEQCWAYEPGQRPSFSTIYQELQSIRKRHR

| Sequence | SH2 binding enrichment (SHP2-C SH2) | SH2 binding enrichment (c-Src SH2) | SH2 binding enrichment (Grb2 SH2) | phosphorylation enrichment (Fes) | phosphorylation enrichment (EPHB1) | phosphorylation enrichment (EPHB2) | phosphorylation enrichment (FGFR3) | phosphorylation enrichment (Hck) | phosphorylation enrichment (Fyn) | phosphorylation enrichment (AncSZ) | phosphorylation enrichment (c-Src) | phosphorylation enrichment (c-Abl (mouse)) | phosphorylation enrichment (MERTK) | phosphorylation enrichment (FGFR1) | phosphorylation enrichment (Fer (mouse)) | phosphorylation enrichment (Jak2) |
| --- | --- | --- | --- | --- | --- | --- | --- | --- | --- | --- | --- | --- | --- | --- | --- | --- |
| KRAIGHFSATS [FAM120A_Y327_Y327H_YF] | 0.66 | 0.525 | 0.852 | 0.42 | 0.407 | 0.332 | 0.39 | 0.397 | 0.351 | 0.423 | 0.387 | 0.402 | 0.371 | 0.335 | 0.338 | 0.456 |
| KRRGPYETSPS [PLPP7_Y172] | 0.377 | 0.493 | 0.549 | 0.495 | 0.345 | 0.403 | 0.397 | 0.399 | 0.491 | 0.599 | 0.614 | 0.526 | 0.405 | 0.414 | 0.446 | 0.539 |
| KRTFEYEADKN [DENND2B_Y396] | 0.702 | 0.576 | 0.747 | 1.03 | 0.545 | 0.526 | 0.576 | 0.483 | 0.471 | 0.947 | 0.39 | 0.61 | 0.403 | 0.507 | 0.496 | 0.781 |
| KSLFHHRQFSA [CPS1_Y1491_Y1491H_YF] | 0.92 | 0.521 | 0.843 | 0.543 | 0.418 | 0.295 | 0.373 | 0.297 | 0.403 | 0.448 | 0.279 | 0.431 | 0.36 | 0.353 | 0.297 | 0.407 |
| KVASVYEALGF [NT5C_Y65_P68L] | 0.667 | 0.613 | 0.787 | 0.989 | 8.22 | 4.25 | 0.574 | 8.84 | 10.3 | 0.88 | 6.25 | 0.697 | 7.59 | 0.607 | 4.62 | 0.595 |
| KVPAIYGVDTR [CPS1_Y162] | 0.707 | 0.466 | 0.841 | 0.665 | 0.334 | 0.383 | 0.469 | 0.701 | 0.642 | 0.61 | 0.782 | 0.525 | 0.54 | 0.398 | 0.422 | 0.615 |
| KYGTNYRVGSS [CPO_Y278] | 1.23 | 0.835 | 1.01 | 0.549 | 0.307 | 0.388 | 0.362 | 0.415 | 0.416 | 0.438 | 0.389 | 0.466 | 0.377 | 0.338 | 0.308 | 0.403 |
| LADMNYVHRDL [EPHB2_Y742] | 0.667 | 0.305 | 0.676 | 1.6 | 0.762 | 0.565 | 0.801 | 0.916 | 0.481 | 1.51 | 0.721 | 0.923 | 0.796 | 0.714 | 0.933 | 0.916 |
| LARDMCDKEYY [MET_Y1230_Y1230C] | 0.593 | 0.952 | 0.714 | 1.89 | 0.853 | 1.01 | 0.828 | 0.834 | 0.902 | 1.64 | 0.849 | 1.06 | 0.84 | 0.995 | 0.897 | 2.02 |
| LAVVDYMRRQK [ATM_Y1915] | 0.652 | 0.531 | 0.675 | 0.655 | 0.285 | 0.337 | 0.437 | 0.453 | 0.413 | 0.674 | 0.553 | 0.604 | 0.513 | 0.373 | 0.374 | 0.605 |

Now from value to sequence, other results behind:

| SH2 binding enrichment (SHP2-C SH2) | SH2 binding enrichment (c-Src SH2) | SH2 binding enrichment (Grb2 SH2) | Sequence | phosphorylation enrichment (Fes) | phosphorylation enrichment (EPHB1) | phosphorylation enrichment (EPHB2) | phosphorylation enrichment (FGFR3) | phosphorylation enrichment (Hck) | phosphorylation enrichment (Fyn) | phosphorylation enrichment (AncSZ) | phosphorylation enrichment (c-Src) | phosphorylation enrichment (c-Abl (mouse)) | phosphorylation enrichment (MERTK) | phosphorylation enrichment (FGFR1) | phosphorylation enrichment (Fer (mouse)) | phosphorylation enrichment (Jak2) |
| --- | --- | --- | --- | --- | --- | --- | --- | --- | --- | --- | --- | --- | --- | --- | --- | --- |
| 0.673 | 0.489 | 0.856 | KRIKLYNQEND [RPGRIP1L_Y448] | 0.681 | 0.306 | 0.387 | 0.459 | 0.379 | 0.377 | 0.643 | 0.353 | 0.612 | 0.439 | 0.412 | 0.388 | 0.502 |
| 0.855 | 0.585 | 1.03 | KSEMSCIDGEK [SORBS1_Y485_Y485C] | 1.06 | 0.491 | 0.567 | 0.686 | 0.447 | 0.431 | 0.862 | 0.423 | 0.793 | 0.406 | 0.522 | 0.44 | 0.658 |
| 0.717 | 0.537 | 0.87 | KTAFSYTSSST [SIM1_Y356_P352T] | 0.721 | 0.329 | 0.482 | 0.475 | 0.353 | 0.41 | 0.665 | 0.432 | 0.456 | 0.44 | 0.426 | 0.399 | 0.497 |
| 0.773 | 0.676 | 0.903 | KTEMLYHLTAR [XRCC2_Y59] | 0.982 | 0.53 | 0.541 | 0.858 | 0.977 | 0.73 | 1.09 | 0.965 | 0.897 | 2.06 | 0.821 | 0.419 | 0.928 |
| 1.17 | 0.966 | 1.25 | KVALPYKPYFY [POLE_Y100] | 0.963 | 0.589 | 0.438 | 0.658 | 0.485 | 0.465 | 0.778 | 0.858 | 0.681 | 0.556 | 0.47 | 0.346 | 0.962 |
| 1.77 | 1.25 | 1.27 | KWHREYNFKFV [RICTOR_Y835_S837F_YF] | 0.944 | 0.488 | 0.531 | 0.585 | 0.432 | 0.372 | 0.859 | 0.429 | 0.729 | 0.436 | 0.474 | 0.622 | 0.937 |
| 0.634 | 0.525 | 0.818 | LAIEGYVVVCK [RHO_Y136_R135G] | 1.41 | 0.75 | 0.826 | 1.02 | 0.747 | 0.604 | 1.5 | 0.526 | 0.991 | 0.528 | 0.707 | 0.459 | 1.09 |
